The target in assay [1] is T1, HLA-A*02:01 (Homo sapiens, UniProt P04439, D140Y/D185E/D98H/E176V/E277Q/G131W/G231S/I119V/I121R/I166T/I218V/L300P/L318F/N151K/N90K/P208A/P217A/Q86G/Q94H/R138H/R169H/T345S).
T1 construct: made in house
Nature of the assay: MHC binding assay: UV-ligand exchange with β2m ELISA (peptide exchange yield). To be noted: binding to HLA-A*02:01 evaluated by peptide exchange yield (UV-ligand exchange, β2m ELISA). The gist of the method:
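Binding capacity is expressed as the yield of UV-mediated ligand exchange, reflecting how well each peptide stabilizes peptide-receptive MHC. Stabilized complexes are read out by anti-β2m HRP ELISA (450 nm) after streptavidin capture, with refolded MLA-001 monomer standards for quantitation.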

For assay [2], the system named is CD8+ T cells of healthy HLA-A*02 donors. Nature of the assay: In vitro immunogenicity: T-cell priming with aAPCs loaded with peptide/MHC and anti-CD28, pMHC multimer readout. Type of assay: cell-based, human. Particulars: in vitro immunogenicity, HLA-A*02 restricted peptides; percentage of positive wells among evaluable. An excerpt: In order to obtain information regarding the immunogenicity of the TUMAPs of the present invention, the inventors performed investigations using an in vitro T-cell priming assay based on repeated stimulations of CD8+ T cells with artificial antigen presenting cells (aAPCs) loaded with peptide/MHC complexes and anti-CD28 antibody.
In order to perform in vitro stimulations by artificial antigen presenting cells loaded with peptide-MHC complex (pMHC) and anti-CD28 antibody, the inventors first isolated CD8+ T cells from fresh HLA-A*02 leukapheresis products via positive selection using CD8 microbeads (Miltenyi Biotec, Bergisch-Gladbach, Germany) of healthy donors obtained from the University clinics Mannheim, Germany, after informed consent. PBMCs and isolated CD8+ lymphocytes were incubated in T-cell medium (TCM) until use consisting of RPMI-Glutamax (Invitrogen, Karlsruhe, Germany) supplemented with 10% heat inactivated human AB serum (PAN-Biotech, Aidenbach, Germany), 100 U/ml Penicillin/100 μg/ml Streptomycin (Cambrex, Cologne, Germany), 1 mM sodium pyruvate (CC Pro, Oberdorla, Germany), 20 μg/ml Gentamycin (Cambrex). 2.5 ng/ml IL-7 (PromoCell, Heidelberg, Germany) and 10 U/ml IL-2 (Novartis Pharma, Nürnberg, Germany) were also added to the TCM at this step. Generation of pMHC/anti-CD28 coated beads, T-cell stimulations and readout was performed in a highly defined in vitro system using four different pMHC molecules per stimulation condition and 8 different pMHC molecules per readout condition.
The purified co-stimulatory mouse IgG2a anti human CD28 Ab 9.3 (Jung et al., 1987) was chemically biotinylated using Sulfo-N-hydroxysuccinimidobiotin as recommended by the manufacturer (Perbio, Bonn, Germany). Beads used were 5.6 μm diameter streptavidin coated polystyrene particles (Bangs Laboratories, Illinois, USA).
pMHC used for positive and negative control stimulations were A*0201/MLA-001 (peptide […] (SEQ ID NO. 289) from modified Melan-A/MART-1) and A*0201/DDX5-001 ([…] from DDX5, SEQ ID NO. 290), respectively.
800.000 beads/200 μl were coated in 96-well plates in the presence of 4×12.5 ng different biotin-pMHC, washed and 600 ng biotin anti-CD28 were added subsequently in a volume of 200 μl. Stimulations were initiated in 96-well plates by co-incubating […] CD8+ T cells with 2×10^5 washed coated beads in 200 μl TCM supplemented with 5 ng/ml IL-12 (PromoCell) for 3 days at 37° C. Half of the medium was then exchanged by fresh TCM supplemented with 80 U/ml IL-2 and incubating was continued for 4 days at 37° C. This stimulation cycle was performed for a total of three times. For the pMHC multimer readout using 8 different pMHC molecules per condition, a two-dimensional combinatorial coding approach was used as previously described (Andersen et al., 2012) with minor modifications encompassing coupling to 5 different fluorochromes. Finally, multimeric analyses were performed by staining the cells with Live/dead near IR dye (Invitrogen, Karlsruhe, Germany), CD8-FITC antibody clone SK1 (BD, Heidelberg, Germany) and fluorescent pMHC multimers. For analysis, a BD LSRII SORP cytometer equipped with appropriate lasers and filters was used. Peptide specific cells were calculated as percentage of total CD8+ cells. Evaluation of multimeric analysis was done using the FlowJo software (Tree Star, Oreg., USA). In vitro priming of specific multimer+ CD8+ lymphocytes was detected by comparing to negative control stimulations.
Exemplary flow cytometry results after TUMAP-specific multimer staining for 15 peptides of the invention are shown in FIGS. 3 and 6 together with corresponding negative controls.

Assay [3] addresses T2, HLA-A*02:01 (human).
T2 construct: MHC monomers captured on streptavidin plates; the UV-sensitive peptide is cleaved and exchanged with the test peptide; also called peptide-receptive MHC molecules; MHC class I
Nature of the assay: UV ligand-exchange ELISA (anti-b2m); ++++ = exchange yield >=75%. An excerpt: Candidate peptides for T cell based therapies according to the present invention were further tested for their MHC binding capacity (affinity). The individual peptide-MHC complexes were produced by UV-ligand exchange, where a UV-sensitive peptide is cleaved upon UV-irradiation, and exchanged with the peptide of interest as analyzed. Only peptide candidates that can effectively bind and stabilize the peptide-receptive MHC molecules prevent dissociation of the MHC complexes. To determine the yield of the exchange reaction, an ELISA was performed based on the detection of the light chain (β2m) of stabilized MHC complexes. The assay was performed as generally described in Rodenko et al. (Rodenko et al., 2006).
96 well MAXISorp plates (NUNC) were coated over night with 2 ug/ml streptavidin in PBS at room temperature, washed 4× and blocked for 1 h at 37° C. in 2% BSA containing blocking buffer. Refolded HLA-A*02:01/MLA-001 monomers served as standards, covering the range of 15-500 ng/ml. Peptide-MHC monomers of the UV-exchange reaction were diluted 100 fold in blocking buffer. Samples were incubated for 1 h at 37° C., washed four times, incubated with 2 ug/ml HRP conjugated anti-β2m for 1 h at 37° C., washed again and detected with TMB solution that is stopped with […]. Absorption was measured at 450 nm. Candidate peptides that show a high exchange yield (preferably higher than 50%, most preferred higher than 75%) are generally preferred for a generation and production of antibodies or fragments thereof, and/or T cell receptors or fragments thereof, as they show sufficient avidity to the MHC molecules and prevent dissociation of the MHC complexes.
On the technique in general: An ELISA detects its analyte on a solid surface through an enzyme-linked reagent.

Take “35 (VIIKGLEEI; listed as Homo sapiens) [compound 35]”: the Peptide exchange result in the assay with HLA-A*02:01 [1] is recorded as “++ (≧20% = ++)”. Besides, the “Wells positive [%]” value in assay [2] was “+ (<20% = +)”. Regarding “246 (ALAGIVTNV; listed as Homo sapiens) [compound 246]”, the Peptide exchange entry with HLA-A*02:01 [1] was “+++ (≧50 = +++)”. In addition, in assay [2], the “Wells positive [%]” value is reported as “+ (<20% = +)”.

Consider “117 (TLLEGISRA; listed as Homo sapiens) [compound 117]”, for which the Peptide exchange entry with HLA-A*02:01 [1] is listed as “++ (≧20% = ++)”. For the same molecule, in assay [2], the “Wells positive [%]” value is “++ (20%-49% = ++)”. The matching figures for “261 (GLAALAVHL; listed as Homo sapiens) [compound 261]”: “+++ (≧50 = +++)” and “++ (20%-49% = ++)”. “7 (ALLQALMEL; listed as Homo sapiens) [compound 7]”: in the assay with HLA-A*02:01 [1], the Peptide exchange result was “+++ (≧50 = +++)”. In addition, the “Wells positive [%]” value in assay [2] is listed as “++ (20%-49% = ++)”. With “9 (SLITGQDLLSV; listed as Homo sapiens) [compound 9]”, in the assay with HLA-A*02:01 [1], the Peptide exchange entry is listed as “+++ (≧50 = +++)”. Further, in assay [2], the “Wells positive [%]” value is recorded as “+ (<20% = +)”. For “260 (ALNESLVEC; listed as Homo sapiens) [compound 260]” the same measures were “+++ (≧50 = +++)” and “+ (<20% = +)”. For “248 (VLMQDSRLYL; listed as Homo sapiens) [compound 248]”, the Peptide exchange entry with HLA-A*02:01 [1] is given as “+++ (≧50 = +++)”. In assay [2], the “Wells positive [%]” value was “++ (20%-49% = ++)”.

In the case of “121 (ALYVQAPTV; listed as Homo sapiens) [compound 121]”, the Peptide exchange result in the assay with HLA-A*02:01 [1] is listed as “++ (≧20% = ++)”. Besides, the “Wells positive [%]” value in assay [2] is listed as “+ (<20% = +)”. As to “48 (KISDFGLATV; listed as Homo sapiens) [compound 48]”, the Peptide exchange entry with HLA-A*02:01 [1] is given as “+++ (≧50 = +++)”. Also, the “Wells positive [%]” value in assay [2] is recorded as “++ (20%-49% = ++)”. With “97 (KLFEKSTGL; listed as Homo sapiens) [compound 97]”, in the assay with HLA-A*02:01 [1], the Peptide exchange result is listed as “+++ (≧50 = +++)”. The “Wells positive [%]” value in assay [2] is given as “+ (<20% = +)”. In the case of “267 (YLLDMPLWYL; listed as Homo sapiens) [compound 267]”, the Peptide exchange result with HLA-A*02:01 [1] was “+++ (≧50 = +++)”. The “Wells positive [%]” value in assay [2] is “+ (<20% = +)”. Regarding “17 (GLLPSAESIKL; listed as Homo sapiens) [compound 17]”, in the assay with HLA-A*02:01 [1], the Peptide exchange entry is listed as “++++ (≧75% = ++++)”. Besides, the “Wells positive [%]” value in assay [2] is listed as “+ (<20% = +)”. For “102 (GLYPVTLVGV; listed as Homo sapiens) [compound 102]” the same measures were “+++ (≧50 = +++)” and “+ (<20% = +)”. On to “27 (GLLGKVTSV; listed as Homo sapiens) [compound 27]”, for which the Peptide exchange result in the assay with HLA-A*02:01 [1] is on record as “+++ (≧50 = +++)”. Also, in assay [2], the “Wells positive [%]” value was “+ (<20% = +)”. As for “236 (KMSELQTYV; listed as Homo sapiens) [compound 236]”, in the assay with HLA-A*02:01 [1], the Peptide exchange result is reported as “+++ (≧50 = +++)”. Also, the “Wells positive [%]” value in assay [2] is “+ (<20% = +)”. “166 (LLGDSSFFL; listed as Homo sapiens) [compound 166]”: the Peptide exchange entry with HLA-A*02:01 [1] was “+++ (≧50 = +++)”. Besides, the “Wells positive [%]” value in assay [2] is on record as “++ (20%-49% = ++)”. The matching figures for “255 (FLMKNSDLYGA; listed as Homo sapiens) [compound 255]”: “+++ (≧50 = +++)” and “+ (<20% = +)”. In the case of “234 (VLLNEILEQV; listed as Homo sapiens) [compound 234]”, the Peptide exchange result with HLA-A*02:01 [1] is recorded as “++++ (≧75% = ++++)”. In addition, in assay [2], the “Wells positive [%]” value is listed as “++ (20%-49% = ++)”. With “157 (ILQDGQFLV; listed as Homo sapiens) [compound 157]”, in the assay with HLA-A*02:01 [1], the Peptide exchange result was “++ (≧20% = ++)”. Moreover, the “Wells positive [%]” value in assay [2] is given as “+ (<20% = +)”.

For “263 (SIIEYLPTL; listed as Homo sapiens) [compound 263]”, in the assay with HLA-A*02:01 [1], the Peptide exchange result is “+++ (≧50 = +++)”. Moreover, the “Wells positive [%]” value in assay [2] is recorded as “+ (<20% = +)”. In the case of “29 (KMISAIPTL; listed as Homo sapiens) [compound 29]”, the Peptide exchange entry with HLA-A*02:01 [1] is given as “++ (≧20% = ++)”. Moreover, the “Wells positive [%]” value in assay [2] is “+ (<20% = +)”. The matching figures for “253 (KLLAVIHEL; listed as Homo sapiens) [compound 253]”: “+++ (≧50 = +++)” and “++ (20%-49% = ++)”. “242 (KLQEEIPVL; listed as Homo sapiens) [compound 242]”: in the assay with HLA-A*02:01 [1], the Peptide exchange entry was “+++ (≧50 = +++)”. Also, the “Wells positive [%]” value in assay [2] is reported as “+ (<20% = +)”. With “92 (RLFEEVLGV; listed as Homo sapiens) [compound 92]”, the Peptide exchange entry with HLA-A*02:01 [1] was “++++ (≧75% = ++++)”. The “Wells positive [%]” value in assay [2] is recorded as “++ (20%-49% = ++)”.

Take “11 (LLDPKTIFL; listed as Homo sapiens) [compound 11]”: the Peptide exchange result with HLA-A*02:01 [1] was “+++ (≧50 = +++)”. Further, the “Wells positive [%]” value in assay [2] is recorded as “++ (20%-49% = ++)”.

Turning to VLLNEILEQV, the peptide exchange yield with HLA-A*02:01 [3] was at least 75%. NLLDENVCL registered a peptide exchange yield with HLA-A*02:01 [3] of at least 75%. In turn, SLVSWQLLL came in with a peptide exchange yield with HLA-A*02:01 [3] of at least 75%. The molecule KLQEKIQEL showed a peptide exchange yield with HLA-A*02:01 [3] of at least 75%. In the assay with HLA-A*02:01 [3], GLLPSAESIKL gave a peptide exchange yield of at least 75%. Still for that read-out and setting: under GLDAFRIFL stands at least 75%.

The values are drawn from patent US20160279215A1, “NOVEL PEPTIDES AND COMBINATION OF PEPTIDES FOR USE IN IMMUNOTHERAPY AGAINST VARIOUS TUMORS” (immatics biotechnologies GmbH, priority 2015, published 2016).
